Data taken from patent US20260062487A1 (GRITSTONE BIO, published 2026).

Assays:
[1] = target: biotinylated refolded A*01:01/b2m with … (Ala 6) (human, UniProt P61769 21-119); assay: BLI (Octet), biotinylated pHLA on streptavidin sensor, antibody as analyte;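 note: pHLA biotinylated through a C-terminal AviTag for uniform orientation, sensor data background-normalized, rate constants from global 1:1 kinetic fitting in Octet software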
Description: (§1) All the assay conditions were prepared in a volume of 200 μL. The pHLA complex biotinylated at the C-terminal AviTag was used to ensure uniform directionality of the protein. […] Using the ForteBio Data Analysis suite, the data was normalized to the association curves followed by background normalization. Curve fitting using global fitting of the sensor data with the Octet™ software using 1:1 kinetic model with errors within 10%, X2below 3, and R2above 0.9 to determine the association and dissociation constants.

[2] = target: T1, biotinylated refolded A*01:01/b2m with … (alanine at position 9) (human, UniProt P61769 21-119); assay: as above
Description: as §1

[3] = target: biotinylated refolded A*01:01/b2m with […] (Ala 3) (human, UniProt P61769 21-119, biotinylated at the C-terminal AviTag); assay: as above
Description: as §1

[4] = target: biotinylated refolded A*01:01/b2m with … (alanine at position 8) (human, UniProt P61769 21-119); assay: as above
Description: as §1

[5] = target: biotinylated refolded A*01:01/b2m with … (Ala 2) (human, UniProt P61769 21-119); assay: as above
Description: as §1

[6] = target: T2, biotinylated refolded G2-pHLA (A*01:01/b2m/…) (human, biotinylated at the C-terminal AviTag); assay: as above
T2 construct: Soluble complex caught on streptavidin sensors or MSD plates; also called G2-peptide A*01:01/b2m complex; WT
Description: as §1

[7] = target: biotinylated refolded A*01:01/b2m with … (Ala 1) (human, UniProt P61769 21-119); assay: as above
Description: as §1

[8] = target: biotinylated refolded A*01:01/b2m with … (Ala 4) (human, UniProt P61769 21-119); assay: as above
Description: as §1

[9] = target: biotinylated refolded A*01:01/b2m with … (Ala 5) (human, UniProt P61769 21-119); assay: as above
Description: as §1

[10] = target: T1, biotinylated refolded A*01:01/b2m with …; assay: BLI (Octet), biotinylated pHLA on streptavidin sensor
Description: as §1

B1: monovalent Format 3-E07-hOKT3a antibody (bispecific antibody, V domains shown)
VH 1: QVQLVQSGAEVKKPGASVKVSCKASGFTFTNYLIHWVRQAPGQGLEWMGWINPNSGGTNYAQRLQGRVTMTRDTSTSTVYMELSSLRSEDTAVYYCARDYGAGNDYWGQGTLVTVSS
VL 1: DIQMTQSPSSLSASVGDRVTITCRASQEIRRWLAWYQQKPGKAPKLLIYAASNLQSGVPSRFSGSGSGTDFTLTISSLQPEDFATYYCQQSYSTPYTFGQGTKLEIK
VH 2: QVQLVQSGAEVKKPGASVKVSCKASGYTFTRYTMHWVRQAPGQGLEWMGYINPSRGYTNYNQKFKDRVTLTTDKSSSTAYMELSSLRSEDTAVYYCARYYDDHYSLDYWGQGTLVTVSS
VL 2: DIQMTQSPSSLSASVGDRVTITCSASSSVSYMNWYQQKPGKAPKRLIYDTSKLASGVPSRFSGSGSGTDFTLTISSLQPEDFATYYCQQWSSNPFTFGQGTKLEIK
Fold change in Response (against WT) [1]: 2.7 fold | Fold change in affinity (against WT) [1]: 13.3 fold | Kd [1]: 16 nM | Max Response (nm) [1]: 0.09 nm | Max Response (nm) [2]: 0 nm | Fold change in Response (against WT) [3]: 1.6 fold | Fold change in affinity (against WT) [3]: 14.2 fold | Kd [3]: 17 nM | Max Response (nm) [3]: 0.15 nm | Fold change in affinity (against WT) [4]: 6.7 fold | Kd [4]: 8 nM | Max Response (nm) [4]: 0.24 nm | Kd [5]: 1.5 nM | Max Response (nm) [5]: 0.24 nm | Kd [6]: 1.2 nM | Max Response (nm) [6]: 0.24 nm | Fold change in affinity (against WT) [7]: 2.5 fold | Kd [7]: 3 nM | Max Response (nm) [7]: 0.26 nm | Fold change in affinity (against WT) [8]: 7.3 fold | Kd [8]: 8.7 nM | Max Response (nm) [8]: 0.24 nm | Fold change in affinity (against WT) [9]: 13.3 fold | Kd [9]: 16 nM | Max Response (nm) [9]: 0.21 nm | binding result [10]: no binding (tested: typically 500-0 nM antibody)
